Experimental data as given in article PMC10214526 (2023).
Where no end group is shown, it is not given here.

What was measured:
[1] = molecular target: LC3A (UniProt Q9H492 1-121); test: FP
[2] = molecular target: GABARAP (UniProt O95166 2-116); test: FP
GABARAP, sequence (O95166 2-116): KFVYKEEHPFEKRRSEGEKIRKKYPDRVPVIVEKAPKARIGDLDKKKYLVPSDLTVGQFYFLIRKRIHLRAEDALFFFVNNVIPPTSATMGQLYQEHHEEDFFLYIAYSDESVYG

Row | Binder | Kd [1] | Kd [2]
1 | LEAIIEEDDGDGGWVDTYH (also: fluorescein, position not given here) [fluorescein-modified linear LIR^ATG3 peptide] | 2600 nM | 1200 nM
2 | LEAIIEEDDGDGGWVDTYHCGGGK (also: fluorescein, position not given here, cyclized, places not given here) [fluorescein-modified cyclized LIR^ATG3 peptide] | 410 nM | 150 nM
3 | GDGGWVDTY (also: fluorescein, position not given here) [fluorescein-modified truncated (103–111) LIR^ATG3 peptide] | > 15000 nM | > 10000 nM
